Target: T1, human C-C motif chemokine receptor-like 2 (CCRL2) isoform b, on HEK-huCCRL2 cells (human, UniProt O00421 1-344)
T1 chain: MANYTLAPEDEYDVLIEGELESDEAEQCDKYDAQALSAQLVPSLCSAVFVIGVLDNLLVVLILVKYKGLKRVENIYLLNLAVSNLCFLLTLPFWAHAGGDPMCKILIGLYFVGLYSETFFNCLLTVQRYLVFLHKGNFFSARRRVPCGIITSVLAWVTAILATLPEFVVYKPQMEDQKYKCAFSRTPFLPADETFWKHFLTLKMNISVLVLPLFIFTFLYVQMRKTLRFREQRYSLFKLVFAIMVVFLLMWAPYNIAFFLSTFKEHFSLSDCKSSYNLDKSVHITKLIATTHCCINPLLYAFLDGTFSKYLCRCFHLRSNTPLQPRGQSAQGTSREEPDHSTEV
Assay: SPR

Kd: 7.48 nM
B1: recombinant active human chemerin (residues 21-157), unlabeled (ligand)
chain: ELTEAQRRGLQVALEEFHKHPPVQWAFQETSVESAVDTPFPAGIFVRLEFKLQQTSCRKRDWKKPECKVRPNGRKRKCLACIKLGSEDKVLGRLVHCPIETQVLREAEEHQETQCLRVQRAGEDPHSFYFPGQFAFS
